According to the Human Domainome abundance scans (Beltran et al. 2025):
± gives the uncertainty stated by the source.

B1: Homeobox protein SIX3, residues 212 to 262; numbered along this chain, O95343 (parent)
chain: CFKERTRSLLREWYLQDPYPNPSKKRELAQATGLTPTQVGNWFKNRRQRDR

Variants of: B1
Test: abundance fitness (aPCA) (normalised: wild type 0, dead -1); higher = more abundant; growth selection in yeast, the domain comes from the species named
Details: Homo sapiens

In order of rising abundance fitness:
1. CFKERTRSLLREWYLQDPYWNPSKKRELAQATGLTPTQVGNWFKNRRQRDR [P20W]  -1.13 ± 0.18
2. CFKERTRSLLREWYLQDPYSNPSKKRELAQATGLTPTQVGNWFKNRRQRDR [P20S]  -1.05 ± 0.3
3. CFKERTRSLLREWYLQDPYNNPSKKRELAQATGLTPTQVGNWFKNRRQRDR [P20N]  -0.912 ± 0.31
4. CFKERTRSLLREWYLQDPYPYPSKKRELAQATGLTPTQVGNWFKNRRQRDR [N21Y]  -0.873 ± 0.1
5. CFKERTRSLLREWYLQDPYTNPSKKRELAQATGLTPTQVGNWFKNRRQRDR [P20T]  -0.838 ± 0.23
6. CFKERTRSLLREWYLQDPYRNPSKKRELAQATGLTPTQVGNWFKNRRQRDR [P20R]  -0.819 ± 0.062
7. CFKERTRSLLREWYLQDPYQNPSKKRELAQATGLTPTQVGNWFKNRRQRDR [P20Q]  -0.812 ± 0.39
8. CFKERTRSLLREWYLQDPYPNHSKKRELAQATGLTPTQVGNWFKNRRQRDR [P22H]  -0.717 ± 0.42
9. CFKERTRSLLREWYLQDPYYNPSKKRELAQATGLTPTQVGNWFKNRRQRDR [P20Y]  -0.707 ± 0.075
10. CFKERTRSLLREWYLQDPYMNPSKKRELAQATGLTPTQVGNWFKNRRQRDR [P20M]  -0.663 ± 0.17
11. CFKERTRSLLREWYLQDPYPWPSKKRELAQATGLTPTQVGNWFKNRRQRDR [N21W]  -0.613 ± 0.077
12. CFKERTRSLLREWYLQDPYPQPSKKRELAQATGLTPTQVGNWFKNRRQRDR [N21Q]  -0.553 ± 0.34
13. CFKERTRSLLREWYLQDPYPNPKKKRELAQATGLTPTQVGNWFKNRRQRDR [S23K]  -0.512 ± 0.19
14. CFKERTRSLLREWYLQDPYPFPSKKRELAQATGLTPTQVGNWFKNRRQRDR [N21F]  -0.499 ± 0.21
15. CFKERTRSLLREWYLQDPYVNPSKKRELAQATGLTPTQVGNWFKNRRQRDR [P20V]  -0.477 ± 0.081
16. CFKERTRSLLREWYLQDPYPNKSKKRELAQATGLTPTQVGNWFKNRRQRDR [P22K]  -0.445 ± 0.078
17. CFKERTRSLLREWYLQDPYPIPSKKRELAQATGLTPTQVGNWFKNRRQRDR [N21I]  -0.433 ± 0.17
18. CFKERTRSLLREWYLQDPYPLPSKKRELAQATGLTPTQVGNWFKNRRQRDR [N21L]  -0.375 ± 0.049
19. CFKERTRSLLREWYLQDPYPNRSKKRELAQATGLTPTQVGNWFKNRRQRDR [P22R]  -0.362 ± 0.06
20. CFKERTRSLLREWYLQDPYPNCSKKRELAQATGLTPTQVGNWFKNRRQRDR [P22C]  -0.359 ± 0.21
21. CFKERTRSLLREWYLQDPYPNPHKKRELAQATGLTPTQVGNWFKNRRQRDR [S23H]  -0.356 ± 0.059
22. CFKERTRSLLREWYLQDPYPRPSKKRELAQATGLTPTQVGNWFKNRRQRDR [N21R]  -0.351 ± 0.057
23. CFKERTRSLLREWYLQDPYPNPFKKRELAQATGLTPTQVGNWFKNRRQRDR [S23F]  -0.343 ± 0.11
24. CFKERTRSLLREWYLQDPYPNPLKKRELAQATGLTPTQVGNWFKNRRQRDR [S23L]  -0.342 ± 0.059
25. CFKERTRSLLREWYLQDPYPMPSKKRELAQATGLTPTQVGNWFKNRRQRDR [N21M]  -0.277 ± 0.067
26. CFKERTRSLLREWYLQDPYPNMSKKRELAQATGLTPTQVGNWFKNRRQRDR [P22M]  -0.266 ± 0.11
27. CFKERTRSLLREWYLQDPYPNNSKKRELAQATGLTPTQVGNWFKNRRQRDR [P22N]  -0.232 ± 0.084
28. CFKERTRSLLREWYLQDPYPNQSKKRELAQATGLTPTQVGNWFKNRRQRDR [P22Q]  -0.212 ± 0.094
29. CFKERTRSLLREWYLQDPYPNDSKKRELAQATGLTPTQVGNWFKNRRQRDR [P22D]  -0.195 ± 0.12
30. CFKERTRSLLREWYLQDPYPHPSKKRELAQATGLTPTQVGNWFKNRRQRDR [N21H]  -0.171 ± 0.097
31. CFKERTRSLLREWYLQDPYPNPCKKRELAQATGLTPTQVGNWFKNRRQRDR [S23C]  -0.166 ± 0.17
32. CFKERTRSLLREWYLQDPYPAPSKKRELAQATGLTPTQVGNWFKNRRQRDR [N21A]  -0.159 ± 0.052
33. CFKERTRSLLREWYLQDPYPVPSKKRELAQATGLTPTQVGNWFKNRRQRDR [N21V]  -0.14 ± 0.047
34. CFKERTRSLLREWYLQDPYPNASKKRELAQATGLTPTQVGNWFKNRRQRDR [P22A]  -0.108 ± 0.061
35. CFKERTRSLLREWYLQDPYPNSSKKRELAQATGLTPTQVGNWFKNRRQRDR [P22S]  -0.107 ± 0.05
36. CFKERTRSLLREWYLQDPYPNYSKKRELAQATGLTPTQVGNWFKNRRQRDR [P22Y]  -0.102 ± 0.12
37. CFKERTRSLLREWYLQDPYPNPGKKRELAQATGLTPTQVGNWFKNRRQRDR [S23G]  -0.079 ± 0.056
38. CFKERTRSLLREWYLQDPYPGPSKKRELAQATGLTPTQVGNWFKNRRQRDR [N21G]  -0.042 ± 0.057
39. CFKERTRSLLREWYLQDPYPNISKKRELAQATGLTPTQVGNWFKNRRQRDR [P22I]  -0.014 ± 0.05
40. CFKERTRSLLREWYLQDPYPNPEKKRELAQATGLTPTQVGNWFKNRRQRDR [S23E]  0.002 ± 0.08
41. CFKERTRSLLREWYLQDPYPPPSKKRELAQATGLTPTQVGNWFKNRRQRDR [N21P]  0.027 ± 0.063
42. CFKERTRSLLREWYLQDPYPNVSKKRELAQATGLTPTQVGNWFKNRRQRDR [P22V]  0.03 ± 0.058
43. CFKERTRSLLREWYLQDPYPNESKKRELAQATGLTPTQVGNWFKNRRQRDR [P22E]  0.055 ± 0.048
44. CFKERTRSLLREWYLQDPYPNPAKKRELAQATGLTPTQVGNWFKNRRQRDR [S23A]  0.072 ± 0.076
45. CFKERTRSLLREWYLQDPYPSPSKKRELAQATGLTPTQVGNWFKNRRQRDR [N21S]  0.078 ± 0.056
46. CFKERTRSLLREWYLQDPYPNWSKKRELAQATGLTPTQVGNWFKNRRQRDR [P22W]  0.125 ± 0.087
47. CFKERTRSLLREWYLQDPYPNLSKKRELAQATGLTPTQVGNWFKNRRQRDR [P22L]  0.156 ± 0.038
48. CFKERTRSLLREWYLQDPYPNPDKKRELAQATGLTPTQVGNWFKNRRQRDR [S23D]  0.175 ± 0.064
49. CFKERTRSLLREWYLQDPYPTPSKKRELAQATGLTPTQVGNWFKNRRQRDR [N21T]  0.224 ± 0.068
50. CFKERTRSLLREWYLQDPYPKPSKKRELAQATGLTPTQVGNWFKNRRQRDR [N21K]  0.23 ± 0.091
51. CFKERTRSLLREWYLQDPYPDPSKKRELAQATGLTPTQVGNWFKNRRQRDR [N21D]  0.322 ± 0.086
